Test [1] has as its target HLA-A*02:01. Nature of the test: IEDB peptide-MHC binding, purified MHC/competitive/radioactivity; filed as Kd, often an IC50 or EC50 that approximates it; ≥ and ≤ were set here for values at or beyond the usual limits of such assays.
Test [2] deals with HLA-A*02:17. The description is as above.
In test [3] the target is HLA-A*02:06. The test is described as above.
The target of test [4] is HLA-A*02:03. The description is as above.
Test [5] addresses HLA-A*02:01. Put plainly: IEDB peptide-MHC binding, purified MHC/direct/fluorescence; filed as Kd, often an IC50 or EC50 that approximates it; ≥ and ≤ were set here for values at or beyond the usual limits of such assays. Particulars: source organism: Rhizobium wenxiniae.
For test [6], the target named is HLA-A*01:01. Described as above. Particulars: source organism: Rhizobium wenxiniae.
The target of test [7] is HLA-B*07:02. The test is described as above. Particulars: source organism: Rhizobium wenxiniae.
Test [8] deals with HLA-A*03:01. The test is described as above. Particulars: source organism: Rhizobium wenxiniae.
Test [9] addresses HLA-B*40:01. The description is as above. Particulars: source organism: Rhizobium wenxiniae.
For test [10], the target named is HLA-B*15:01. The description is as above. Particulars: source organism: Rhizobium wenxiniae.
The target in test [11] is HLA-A*31:01. The test is described as above. Particulars: source organism: Rhizobium wenxiniae.
The target of test [12] is HLA-B*08:01. Described as above. Particulars: source organism: Rhizobium wenxiniae.
Test [13] deals with HLA-A*11:01. Described as above. Particulars: source organism: Rhizobium wenxiniae.
In test [14] the target is HLA-B*27:05. The test is described as above. Particulars: source organism: Rhizobium wenxiniae.
Test [15] addresses HLA-A*69:01. The test is described as above. Particulars: source organism: Rhizobium wenxiniae.
For test [16], the target named is HLA-A*26:01. The test is described as above. Particulars: source organism: Rhizobium wenxiniae.
For test [17], the target named is HLA-B*39:01. Put plainly: IEDB peptide-MHC binding, purified MHC/competitive/fluorescence; filed as Kd, often an IC50 or EC50 that approximates it; ≥ and ≤ were set here for values at or beyond the usual limits of such assays. Particulars: source organism: Rhizobium wenxiniae.
Test [18] addresses HLA-A*68:02. Nature of the test: IEDB peptide-MHC binding, purified MHC/competitive/radioactivity; filed as Kd, often an IC50 or EC50 that approximates it; ≥ and ≤ were set here for values at or beyond the usual limits of such assays.
The target of test [19] is HLA-A*24:03. Put plainly: IEDB peptide-MHC binding, purified MHC/direct/fluorescence; filed as Kd, often an IC50 or EC50 that approximates it; ≥ and ≤ were set here for values at or beyond the usual limits of such assays.
Test [20] has as its target HLA-B*35:01. Put plainly: IEDB peptide-MHC binding, purified MHC/competitive/radioactivity; filed as Kd, often an IC50 or EC50 that approximates it; ≥ and ≤ were set here for values at or beyond the usual limits of such assays.
The target in test [21] is HLA-B*51:01. Described as above. Particulars: source organism: Dengue virus 1 Brazil/97-11/1997.
Test [22] deals with HLA-A*02:02. Described as above.
For test [23], the target named is HLA-B*07:02. Described as above.
The target in test [24] is HLA-B*58:01. Nature of the test: IEDB peptide-MHC binding, purified MHC/direct/fluorescence; filed as Kd, often an IC50 or EC50 that approximates it; ≥ and ≤ were set here for values at or beyond the usual limits of such assays.
Test [25] concerns the target HLA-B*57:01. The description is as above.
Test [26] addresses HLA-B*15:01. Put plainly: IEDB peptide-MHC binding, purified MHC/competitive/radioactivity; filed as Kd, often an IC50 or EC50 that approximates it; ≥ and ≤ were set here for values at or beyond the usual limits of such assays. Particulars: source organism: Dengue virus 2 Jamaica/1409/1983.
For test [27], the target named is HLA-A*30:02. The test is described as above. Particulars: source organism: Dengue virus 1 Brazil/97-11/1997.
The mark [28] stands for this setting: source organism: Dengue virus 3 Martinique/1243/1999.
[29] abbreviates: source organism: Dengue virus 4 Philippines/H241/1956.
[30] abbreviates: source organism: Trypanosoma cruzi.
[31] abbreviates: source organism: Dengue virus 2 Jamaica/1409/1983.
The mark [32] stands for this setting: source organism: Dengue virus 1 Nauru/West Pac/1974.
Where [33] appears, read: source organism: Entamoeba histolytica HM-1:IMSS.
[34] abbreviates: source organism: Lassa virus Josiah.
Where [35] appears, read: source organism: Dengue virus 1 Brazil/97-11/1997.

Some results are limits rather than exact numbers.

By Kd is commonly meant the equilibrium constant for the complex coming apart. On to GMLWMAEIPL, for which the figures for the Kd in test [1] (setting [28]) and in test [2] (setting [28]) were 8.28 nM and 557 nM, respectively.

For KQITNELNYV, the Kd in test [3] (setting [29]) was found to be 13.5 nM; in [1] (setting [29]), 28.8 nM; in [4] (setting [29]), 23.4 nM; in test [2] (setting [29]), 642 nM.

For FHLRSRFAF, the equilibrium dissociation constant (Kd) in test [5], in test [6], in [7], in test [8], in [9] and in test [10] was no less than 20000 nM each time. For the same sequence, the Kd is no less than 20000 nM in test [11]; 113 nM in test [12]; no less than 20000 nM in [13]; no less than 20000 nM in test [14]; no less than 20000 nM in [15]; no less than 20000 nM in test [16]. In [17], this sequence returned a dissociation constant Kd of no more than 1 nM.

Consider AMITDLEERL, for which, in test [18] (source organism: Homo sapiens), the dissociation constant (Kd) turned out to be 784 nM.

The sequence RTLNELWFL displayed a Kd in test [19] (source organism: Escherichia coli O157:H7) of 3.5 nM.

Take TPPGTADAF: the Kd in test [20] (setting [28]) worked out at 278 nM.

With MVQADSGCVI, the Kd in test [21] is no less than 63900 nM.

Turning to FTNNKFTLS, the Kd in [3] (setting [30]) was 328 nM; in test [1] (setting [30]) it was no less than 50000 nM; in [22] (setting [30]), 10100 nM; in test [4] (setting [30]) it was 460 nM; in test [18] (setting [30]), 496 nM.

Consider EMETLQSQL, for which the Kd in test [3] (source organism: Homo sapiens) is no less than 61100 nM; in test [18] (source organism: Homo sapiens), 12300 nM.

Consider CTILAAVSV, for which the Kd in test [18] (setting [31]) turned out to be 1.52 nM.

Turning to SPGTSGSPIV, the Kd in [23] (setting [31]) was found to be 88.1 nM.

Sequence TYGVCSKAF gave a Kd in test [19] (source organism: West Nile virus) of 24.5 nM.

For MSFRDLGRV, the Kd in test [18] (setting [31]) was 19.6 nM.

LAHYIGTSL: the Kd in test [23] (setting [28]) came out at 20 nM.

On to QIFGTAYGV, for which the Kd in [3] (setting [32]) is 3.61 nM; in [18] (setting [32]) it was 2.31 nM.

Take SSTDQQEWM: the Kd in test [24] (setting [33]) is 3870 nM; in test [25] (setting [33]), no less than 20000 nM.

In the case of LMSIISTFHL, the equilibrium dissociation constant (Kd) in test [3] (setting [34]) amounted to 411 nM; in test [22] (setting [34]), 100 nM; in [4] (setting [34]), 122 nM; in test [18] (setting [34]), 361 nM.

In the case of LMCHATFTM, the Kd in test [20] (setting [31]) stood at 1600 nM; in test [26], 9.45 nM.

As to YGGPISQHNY, the figures for the Kd in [20] (setting [35]) and in test [27] were 406 nM and 192 nM, respectively.

With MATYGWNLV, the Kd stood at 1250 nM in test [21] and 20.1 nM in test [18] (setting [35]).

As for VSLTECPTF, the dissociation constant (Kd) in test [24] (source organism: Amur virus) came out at 34.8 nM; in test [25] (source organism: Amur virus), 474 nM.

Consider FLEEMLRTRV, for which the figures for the Kd in [1] (setting [31]) and in test [2] (setting [31]) were 27.2 nM and 137 nM, respectively.

These data come from the Immune Epitope Database (IEDB).
